1 substance from PMC3582566 can be followed below.

For the assay, the target named is S. mutans VicK (aa31-450), entire intracellular region (S. mutans). Briefly: SEC-MALS; VicK at ~4 mg/ml resolved on a size exclusion column (Shodex KW-802.5) in 50 mM HEPES (pH 7.0), 200 mM Na2SO4 at 25°C; DAWN HELEOS II laser photometer; BSA as control.

As to “S. mutans VicK (aa31-450), entire intracellular region (domain or fragment)”, the stoichiometry N is 2.
